Source: patent US20240165282A1, “CONFORMATIONAL CONSTRAINED SOMATOSTATIN RECEPTOR 3 PEPTIDE LIGANDS AND THEIR CONJUGATES AND USES THEREOF” (STARGET PHARMA LTD., priority 2021, published 2024)
*1 amine or outer side, *2 acyl side, *3 side chain or, on linkers, in order; H or OH if unused. Bridges are numbered along the chain shown (N, C = ends). [ ]: non-standard residue; d: D form. The star is where a group is joined. DOTA = O=C(O)CN1CCN(CC(=O)O)CCN(CC(=O)*)CCN(CC(=O)O)CC1; N(2-mercaptoethyl)Gly = O=C(CN(CCS[*:3])[*:1])[*:2]; Orn = NCCC[C@H](N)C(=O)O; GABA = NCCCC(=O)O

Tests used:
Test in all cases: Radioligand binding, displacement of 125I-Tyr11-SRIF-14
[1] = biological target: SSTR5 (Homo sapiens, UniProt P35346); design: host or cells: Chem-1 (Rat ChemiSCREEN) cells, membrane preparation; conditions: hSSTR-5
Excerpt: (§1) The binding to human cloned receptors SSTR-1, or SSTR-2 or SSTR-3 evaluated in stable and selective transfected CHO (Chinese Hamster Ovary) cells and binding to STSR-4 and SSTR-5 in stable and selective transfected Chem-1 (Rat ChemiSCREEN) cells. […] The binding reactions were filtered, the filters were washed, and the bound radioactivity was counted using a gamma counter.
(§2) The following table depicts the conditions of binding assay to each of the somatostatin receptors used for the evaluations of binding affinities of the tested peptides. All assays were performed by quantitation method of radioligand binding under 25° C. The vehicle was 1% DMSO, the incubation buffer was 25 mM HEPES, pH 7.4, 5 mM MgCl2, 1 mM CaCl2, 0.1% BSA. […] The significance criteria were >50% of max inhibition. […] This specific binding data used for calculation of Bmax values which is the concentration of each of the expressed cloned receptor in its transfected cell system.
(§3) The Results of IC50 values were determined by a non-linear, least squares regression analysis using MathIQ™ (ID Business Solutions Ltd., UK). […] The Hill coefficient (nH), defining the slope of the competitive binding curve, was calculated using MathIQ™.

[2] = biological target: SSTR3 (Homo sapiens, UniProt P32745); design: host or cells: CHO (Chinese Hamster Ovary) cells, membrane preparation; conditions: for affinity and selectivity to SSTR3 (in words): binding data; for % displacement of [^125I] Tyr^11-SRIF-14: hSSTR-3
Excerpt: as §1, §2, §3

[3] = biological target: SSTR2 (Homo sapiens, UniProt P30874); design: host or cells: CHO (Chinese Hamster Ovary) cells, membrane preparation; conditions: hSSTR-2
Excerpt: as §1, §2, §3

[4] = biological target: SSTR1 (Homo sapiens, UniProt P30872); design: host or cells: CHO (Chinese Hamster Ovary) cells, membrane preparation; conditions: hSSTR-1
Excerpt: as §1, §2, §3

[5] = biological target: T1, hSSTR-4 (Homo sapiens, UniProt P31391); conditions: hSSTR-4
T1 construct: host or cells: Chem-1 (Rat ChemiSCREEN) cells, membrane preparation
Excerpt: as §1, §2, §3

Sequence of SSTR2 (P30874 whole entry): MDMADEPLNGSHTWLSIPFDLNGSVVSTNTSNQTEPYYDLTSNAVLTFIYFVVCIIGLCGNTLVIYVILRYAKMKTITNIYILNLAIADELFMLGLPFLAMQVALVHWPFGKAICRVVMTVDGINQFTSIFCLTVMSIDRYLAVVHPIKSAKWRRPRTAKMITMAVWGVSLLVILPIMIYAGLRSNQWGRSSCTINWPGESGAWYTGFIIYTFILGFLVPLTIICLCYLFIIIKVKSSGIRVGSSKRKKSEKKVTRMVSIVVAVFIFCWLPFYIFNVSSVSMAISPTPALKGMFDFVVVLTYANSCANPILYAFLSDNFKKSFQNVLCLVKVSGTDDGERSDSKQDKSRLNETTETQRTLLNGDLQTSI
T1 sequence (P31391 whole entry): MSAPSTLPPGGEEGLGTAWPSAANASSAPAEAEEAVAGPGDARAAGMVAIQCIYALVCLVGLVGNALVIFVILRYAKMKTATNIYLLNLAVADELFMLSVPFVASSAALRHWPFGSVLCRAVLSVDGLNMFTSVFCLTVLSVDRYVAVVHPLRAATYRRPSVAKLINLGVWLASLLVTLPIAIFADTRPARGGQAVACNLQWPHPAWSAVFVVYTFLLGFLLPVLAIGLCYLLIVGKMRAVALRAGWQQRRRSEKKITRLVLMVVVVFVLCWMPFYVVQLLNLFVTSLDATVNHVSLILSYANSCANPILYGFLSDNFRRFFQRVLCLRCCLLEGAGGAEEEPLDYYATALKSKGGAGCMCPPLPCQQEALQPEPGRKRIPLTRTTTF
Sequence of SSTR1 (P30872 whole entry): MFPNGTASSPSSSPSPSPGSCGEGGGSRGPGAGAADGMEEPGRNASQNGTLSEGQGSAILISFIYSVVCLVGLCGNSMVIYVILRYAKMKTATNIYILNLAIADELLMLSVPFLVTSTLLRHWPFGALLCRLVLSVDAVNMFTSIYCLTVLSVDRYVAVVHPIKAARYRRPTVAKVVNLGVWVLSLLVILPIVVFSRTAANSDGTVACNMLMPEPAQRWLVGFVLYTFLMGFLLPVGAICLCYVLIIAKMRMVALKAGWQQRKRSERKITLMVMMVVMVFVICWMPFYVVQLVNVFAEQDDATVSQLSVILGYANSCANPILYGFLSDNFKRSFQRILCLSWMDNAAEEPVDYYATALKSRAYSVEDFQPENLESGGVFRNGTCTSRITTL
Sequence of SSTR5 (P35346 whole entry): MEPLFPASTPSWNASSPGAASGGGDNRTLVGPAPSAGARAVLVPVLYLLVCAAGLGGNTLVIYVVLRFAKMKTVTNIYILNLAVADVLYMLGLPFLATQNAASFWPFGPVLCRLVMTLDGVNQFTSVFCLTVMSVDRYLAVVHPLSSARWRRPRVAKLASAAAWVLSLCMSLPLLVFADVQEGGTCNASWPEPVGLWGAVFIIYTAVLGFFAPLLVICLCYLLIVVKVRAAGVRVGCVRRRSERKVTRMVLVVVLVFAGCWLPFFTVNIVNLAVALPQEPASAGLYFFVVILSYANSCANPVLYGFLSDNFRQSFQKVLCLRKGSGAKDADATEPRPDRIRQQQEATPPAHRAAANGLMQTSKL
Sequence of SSTR3 (P32745 whole entry): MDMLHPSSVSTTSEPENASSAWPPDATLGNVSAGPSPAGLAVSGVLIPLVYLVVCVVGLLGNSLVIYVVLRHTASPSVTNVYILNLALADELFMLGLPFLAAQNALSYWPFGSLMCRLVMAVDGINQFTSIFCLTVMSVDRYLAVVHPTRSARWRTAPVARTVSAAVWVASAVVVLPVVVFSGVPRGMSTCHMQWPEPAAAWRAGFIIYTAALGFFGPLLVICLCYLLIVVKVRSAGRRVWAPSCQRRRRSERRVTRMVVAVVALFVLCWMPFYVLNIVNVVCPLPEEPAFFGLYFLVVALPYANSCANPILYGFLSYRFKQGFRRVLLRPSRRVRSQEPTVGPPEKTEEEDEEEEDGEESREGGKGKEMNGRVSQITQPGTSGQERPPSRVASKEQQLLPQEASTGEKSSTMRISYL

## DOTA-D-Phe^1-Glu^2-Glu^3-Orn^4-Cys^5-Phe^6-D-Trp^7-Lys^8-Thr^9-Phe^10-NTEG^11-NH2 (cyclo 5-11) ({DOTA}-[dF]EE[Orn]CF[dW]KTF[N(2-mercaptoethyl)Gly]-NH2; disulfide 5-11; SMILES C[C@@H](O)[C@@H]1NC(=O)[C@H](CCCCN)NC(=O)[C@@H](Cc2c[nH]c3ccccc23)NC(=O)[C@H](Cc2ccccc2)NC(=O)[C@@H](NC(=O)[C@H](CCCN)NC(=O)[C@H](CCC(=O)O)NC(=O)[C@H](CCC(=O)O)NC(=O)[C@@H](Cc2ccccc2)NC(=O)CN2CCN(CC(=O)O)CCN(CC(=O)O)CCN(CC(=O)O)CC2)CSSCCN(CC(N)=O)C(=O)[C@H](Cc2ccccc2)NC1=O) [SEQ ID NO: 22]
[1]; at 1 nM (in brackets)
  % displacement of [^125I] Tyr^11-SRIF-14: 0(0) %
[1]; at 10 nM
  % displacement of [^125I] Tyr^11-SRIF-14: 0(0) %
[2]
  affinity and selectivity to SSTR3 (in words): did not interfere with the affinity and selectivity to SSTR3
[2]; at 1 nM (in brackets)
  % displacement of [^125I] Tyr^11-SRIF-14: 0%
[2]; at 10 nM
  % displacement of [^125I] Tyr^11-SRIF-14: 49%
[3]; at 1 nM (in brackets)
  % displacement of [^125I] Tyr^11-SRIF-14: 0(0) %
[3]; at 10 nM
  % displacement of [^125I] Tyr^11-SRIF-14: 0(0) %
[4]; at 1 nM (in brackets)
  % displacement of [^125I] Tyr^11-SRIF-14: 8%
[4]; at 10 nM
  % displacement of [^125I] Tyr^11-SRIF-14: 7%
[5]; at 1 nM (in brackets)
  % displacement of [^125I] Tyr^11-SRIF-14: 0%
[5]; at 10 nM
  % displacement of [^125I] Tyr^11-SRIF-14: 3%

## DOTA-D-Phe^1-Glu^2-Orn^3-Cys^4-Phe^5-D-Trp^6-Lys^7-Thr^8-Phe^9-NTEG^10-NH2 (cyclo 4-10) ({DOTA}-[dF]E[Orn]CF[dW]KTF[N(2-mercaptoethyl)Gly]-NH2; disulfide 4-10; SMILES C[C@@H](O)[C@@H]1NC(=O)[C@H](CCCCN)NC(=O)[C@@H](Cc2c[nH]c3ccccc23)NC(=O)[C@H](Cc2ccccc2)NC(=O)[C@@H](NC(=O)[C@H](CCCN)NC(=O)[C@H](CCC(=O)O)NC(=O)[C@@H](Cc2ccccc2)NC(=O)CN2CCN(CC(=O)O)CCN(CC(=O)O)CCN(CC(=O)O)CC2)CSSCCN(CC(N)=O)C(=O)[C@H](Cc2ccccc2)NC1=O) [SEQ ID NO: 23]
[1]; at 1 nM (in brackets)
  % displacement of [^125I] Tyr^11-SRIF-14: 0(0) %
[1]; at 10 nM
  % displacement of [^125I] Tyr^11-SRIF-14: 0(0) %
[2]; at 1 nM (in brackets)
  % displacement of [^125I] Tyr^11-SRIF-14: 19%
[2]; at 10 nM
  % displacement of [^125I] Tyr^11-SRIF-14: 56%
[3]; at 1 nM (in brackets)
  % displacement of [^125I] Tyr^11-SRIF-14: 0(0) %
[3]; at 10 nM
  % displacement of [^125I] Tyr^11-SRIF-14: 0(0) %
[4]; at 1 nM (in brackets)
  % displacement of [^125I] Tyr^11-SRIF-14: 4%
[4]; at 10 nM
  % displacement of [^125I] Tyr^11-SRIF-14: 6%
[5]; at 1 nM (in brackets)
  % displacement of [^125I] Tyr^11-SRIF-14: 0(0) %
[5]; at 10 nM
  % displacement of [^125I] Tyr^11-SRIF-14: 0(0) %

## DOTA-D-Phe^1-Orn^2-Cys^3-Phe^4-D-Trp^5-Lys^6-Thr^7-Phe^8-NTEG^9-NH2 cyclo 3-9 [SEQ ID NO: 21]
[1]; at 1 nM (in brackets)
  % displacement of [^125I] Tyr^11-SRIF-14: 0(0) %
[1]; at 10 nM
  % displacement of [^125I] Tyr^11-SRIF-14: 0(0) %
[2]
  affinity and selectivity to SSTR3 (in words): did not interfere with the affinity and selectivity to SSTR3
[2]; at 1 nM (in brackets)
  % displacement of [^125I] Tyr^11-SRIF-14: 59%
[2]; at 10 nM
  % displacement of [^125I] Tyr^11-SRIF-14: 93%
[3]; at 1 nM (in brackets)
  % displacement of [^125I] Tyr^11-SRIF-14: 0%
[3]; at 10 nM
  % displacement of [^125I] Tyr^11-SRIF-14: 2%
[4]; at 1 nM (in brackets)
  % displacement of [^125I] Tyr^11-SRIF-14: 23%
[4]; at 10 nM
  % displacement of [^125I] Tyr^11-SRIF-14: 22%
[5]; at 1 nM (in brackets)
  % displacement of [^125I] Tyr^11-SRIF-14: 9(9) %
[5]; at 10 nM
  % displacement of [^125I] Tyr^11-SRIF-14: 9(9) %

## DOTA-Gly^1-D-Phe^2-Arg^3-Cys^4-Phe^5-D-Trp^6-Lys^7-Thr^8-Phe^9-NTEG^10-NH2 (cyclo 4-10) ({DOTA}-G[dF]RCF[dW]KTF[N(2-mercaptoethyl)Gly]-NH2; disulfide 4-10; SMILES C[C@@H](O)[C@@H]1NC(=O)[C@H](CCCCN)NC(=O)[C@@H](Cc2c[nH]c3ccccc23)NC(=O)[C@H](Cc2ccccc2)NC(=O)[C@@H](NC(=O)[C@H](CCCNC(=N)N)NC(=O)[C@@H](Cc2ccccc2)NC(=O)CNC(=O)CN2CCN(CC(=O)O)CCN(CC(=O)O)CCN(CC(=O)O)CC2)CSSCCN(CC(N)=O)C(=O)[C@H](Cc2ccccc2)NC1=O) [SEQ ID NO: 11]
[1]; at 1 nM (in brackets)
  % displacement of [^125I] Tyr^11-SRIF-14: 0(0) %
[1]; at 10 nM
  % displacement of [^125I] Tyr^11-SRIF-14: 0(0) %
[2]; at 1 nM (in brackets)
  % displacement of [^125I] Tyr^11-SRIF-14: 47%
[2]; at 10 nM
  % displacement of [^125I] Tyr^11-SRIF-14: 88%
[3]; at 1 nM (in brackets)
  % displacement of [^125I] Tyr^11-SRIF-14: 0(0) %
[3]; at 10 nM
  % displacement of [^125I] Tyr^11-SRIF-14: 0(0) %
[4]; at 1 nM (in brackets)
  % displacement of [^125I] Tyr^11-SRIF-14: 2%
[4]; at 10 nM
  % displacement of [^125I] Tyr^11-SRIF-14: 19%
[5]; at 1 nM (in brackets)
  % displacement of [^125I] Tyr^11-SRIF-14: 0(0) %
[5]; at 10 nM
  % displacement of [^125I] Tyr^11-SRIF-14: 0(0) %

## DOTA-Lys^1-D-Phe^2-Arg^3-Gly^4-Asp^5-Glu^6-GABA-D-Phe^7-Lys^8-Cys^9-Phe^10-D-Trp^11-Lys^12- Thr^13-Phe^14-NTEG^15-NH2 (cyclo 1-6; cyclo 9-15) ({DOTA}-K[dF]RGDE[GABA][dF]KCF[dW]KTF[N(2-mercaptoethyl)Gly]-NH2; lactam 1-6; disulfide 10-16; not fully specified; printed as DOTA-Lys1-D-Phe2-Arg3-Gly4-Asp5-Glu6-GABA-D-Phe7-Lys8-Cys9-Phe10-D-Trp11-Lys12- Thr13-Phe14-NTEG15-NH2 (cyclo 1-6, cyclo 9-15); numbers in words are those of the source; also: cyclo 1-6 listed as disulfide between Lys1 and Glu6) [SEQ ID NO: 17]
[1]; at 1 nM (in brackets)
  % displacement of [^125I] Tyr^11-SRIF-14: 15%
[1]; at 10 nM
  % displacement of [^125I] Tyr^11-SRIF-14: 13%
[2]; at 1 nM (in brackets)
  % displacement of [^125I] Tyr^11-SRIF-14: 68%
[2]; at 10 nM
  % displacement of [^125I] Tyr^11-SRIF-14: 91%
[3]; at 1 nM (in brackets)
  % displacement of [^125I] Tyr^11-SRIF-14: 11%
[3]; at 10 nM
  % displacement of [^125I] Tyr^11-SRIF-14: 8%
[4]; at 1 nM (in brackets)
  % displacement of [^125I] Tyr^11-SRIF-14: 9%
[4]; at 10 nM
  % displacement of [^125I] Tyr^11-SRIF-14: 15%
[5]; at 1 nM (in brackets)
  % displacement of [^125I] Tyr^11-SRIF-14: 7%
[5]; at 10 nM
  % displacement of [^125I] Tyr^11-SRIF-14: 5%

## DOTA-Phe^1-D-Phe^2-Arg^3-(Cys^4-Phe^5-D-Trp^6-Lys^7-Thr^8-Phe^9-NTEG^10)-NH2 (cyclo 4-10) ({DOTA}-F[dF]RCF[dW]KTF[N(2-mercaptoethyl)Gly]-NH2; disulfide 4-10; SMILES C[C@@H](O)[C@@H]1NC(=O)[C@H](CCCCN)NC(=O)[C@@H](Cc2c[nH]c3ccccc23)NC(=O)[C@H](Cc2ccccc2)NC(=O)[C@@H](NC(=O)[C@H](CCCNC(=N)N)NC(=O)[C@@H](Cc2ccccc2)NC(=O)[C@H](Cc2ccccc2)NC(=O)CN2CCN(CC(=O)O)CCN(CC(=O)O)CCN(CC(=O)O)CC2)CSSCCN(CC(N)=O)C(=O)[C@H](Cc2ccccc2)NC1=O) [SEQ ID NO: 20]
[1]; at 1 nM (in brackets)
  % displacement of [^125I] Tyr^11-SRIF-14: 0(0) %
[1]; at 10 nM
  % displacement of [^125I] Tyr^11-SRIF-14: 0(0) %
[2]; at 1 nM (in brackets)
  % displacement of [^125I] Tyr^11-SRIF-14: 66%
[2]; at 10 nM
  % displacement of [^125I] Tyr^11-SRIF-14: 95%
[3]; at 1 nM (in brackets)
  % displacement of [^125I] Tyr^11-SRIF-14: 0%
[3]; at 10 nM
  % displacement of [^125I] Tyr^11-SRIF-14: 2%
[4]; at 1 nM (in brackets)
  % displacement of [^125I] Tyr^11-SRIF-14: 8%
[4]; at 10 nM
  % displacement of [^125I] Tyr^11-SRIF-14: 14%
[5]; at 1 nM (in brackets)
  % displacement of [^125I] Tyr^11-SRIF-14: 0(0) %
[5]; at 10 nM
  % displacement of [^125I] Tyr^11-SRIF-14: 0(0) %
